{
  "source": "paper PMC2752191",
  "origin": "cited, not measured here",
  "key": {"Bak peptide": {"target": "Bak peptide (UniProt Q16611)"}, "Beclin1 peptide": {"target": "Beclin1 peptide (UniProt Q14457)", "sequence (Q14457 107-130)": "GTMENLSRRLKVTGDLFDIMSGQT"}, "Bax peptide": {"target": "Bax peptide (UniProt Q07812)", "sequence (Q07812 55-74)": "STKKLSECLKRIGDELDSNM"}},
  "data": [
    {"substance": "vBcl-2 (from UniProt P89884)", "values": [
      {"measurement": "Kd", "setting": "Bak peptide", "result": 76, "unit": "nM"},
      {"measurement": "Kd", "setting": "Beclin1 peptide", "result": 40, "unit": "nM"},
      {"measurement": "Kd", "setting": "Bax peptide", "result": 690, "unit": "nM"}
    ]}
  ]
}
